Laboratory results taken from patent US20250171534A1 (D2M BIOTHERAPEUTICS, published 2025).
Several values for one entry are separate records, joined by “and”; a condition that tells them apart may be missing. Equal values may be shown once.

Assays:
[1] = molecular target: T1, LILRB1-ECD-HIS (SinoBiological Cat #: 16014-H02H) (human, UniProt Q8NHL6 24-461); assay: BLI (Gator), RB1-ECD-his
T1 construct: Bought protein; also called monomeric antigen LILRB1-ECD-HIS; not shown: His tag

[2] = molecular target: T2, LILRB5 expressed on 293T cells (UniProt O75023 24-590, limits assumed); assay: flow cytometry on 293T cells transiently expressing LILRB5, APC anti-human Fc; gMFI as fold to IgG staining
T2 construct: whole, on cells; GFP-tagged, transient

[3] = molecular target: T3, human LILRB2 expressed on cells (human, UniProt Q8N423 22-597); assay: flow cytometry on CHO-LILRB2 cells (CHO-RB2), titrated antibody, labelled anti-human Fc, gMFI
T3 construct: In 293T cells it was expressed from pCMV3-LILRB2-GFP; also called CHO-LILRB2; Jurkat-LILRB2

[4] = molecular target: T4, cynomolgus monkey putative LILRB2 (antigen of the Gator measurement) (cynomolgus monkey); assay: BLI (Gator), cyno RB2-his
T4 construct: also called cynomolgus monkey LILRB2

[5] = molecular target: T5, LILRA2 expressed on 293T cells (UniProt Q8N149 24-483, limits assumed); assay: flow cytometry on 293T cells transiently expressing LILRA2, APC anti-human Fc; gMFI as fold to IgG staining
T5 construct: whole, on cells; GFP-tagged, transient

[6] = molecular target: T6, human LILRB1 expressed on cells (human, UniProt Q8NHL6 24-650); assay: flow cytometry, CHO-LILRB1 cells; blocked ligand: APC HLA-G trimer tetramer
T6 construct: In 293T cells it was expressed from pCMV3-LILRB1-GFP; also called CHO-LILRB1; Jurkat-LILRB1

[7] = molecular target: T7, LILRB2-ECD-HIS (SinoBiological Cat #: 14132-H02H) (human, UniProt Q8N423 22-460); assay: BLI (Gator), trace labelled 0.5 µg/mL; unit taken from the Average KD line
T7 construct: Bought protein; also called monomeric antigen LILRB2-ECD-HIS; not shown: His tag

[8] = molecular target: T1, LILRB1-ECD-HIS (SinoBiological Cat #: …); assay: SPR (Carterra), LILRB1-ECD-his
[9] = molecular target: T8, LILRA5 expressed on 293T cells (UniProt A6NI73 42-299, limits assumed); assay: flow cytometry on 293T cells transiently expressing LILRA5, APC anti-human Fc; gMFI as fold to IgG staining
T8 construct: whole, on cells; GFP-tagged, transient

[10] = molecular target: T3, human LILRB2 expressed on cells; assay: flow cytometry, Jurkat-LILRB2 cells
[11] = molecular target: T9, LILRA4 expressed on 293T cells (UniProt P59901 24-499, limits assumed); assay: flow cytometry on 293T cells transiently expressing LILRA4, antibody 5 µg/mL, APC anti-human Fc; gMFI as fold to IgG staining
T9 construct: whole, on cells; GFP-tagged, transient

[12] = molecular target: T7, LILRB2-ECD-HIS (SinoBiological Cat #: …); assay: BLI (Gator Prime), antibody on anti-hIgG Fc probe, monomeric LILRB2-ECD-HIS in solution
[13] = molecular target: T3, human LILRB2 expressed on cells; assay: flow cytometry, Jurkat-LILRB2 cells; blocked ligand: APC HLA-G monomer tetramer
[14] = molecular target: T10, LILRA1 expressed on cells (human, UniProt O75019 17-489); assay: flow cytometry on CHO-LILRA1 cells (CHO-RA1), titrated antibody, labelled anti-human Fc, gMFI
T10 construct: whole, on cells; GFP-tagged; also called human LILRA1; CHO-LILRA1

[15] = molecular target: T3, human LILRB2 expressed on cells; assay: flow cytometry, CHO-LILRB2 cells
[16] = molecular target: T10, LILRA1 expressed on cells; assay: flow cytometry on CHO-LILRA1 cells, non-linear fit of the curves of FIG. 26E
[17] = molecular target: T1, LILRB1-ECD-HIS (SinoBiological Cat #: …); assay: SPR (Carterra LSA), antibody captured, antigen injected;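 note: kd obtained from kinetic analysis of antibody binding to the antigen, with association and dissociation phases fitted in the instrument software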
[18] = molecular target: T7, LILRB2-ECD-HIS (SinoBiological Cat #: …); assay: as above
[19] = molecular target: T1, LILRB1-ECD-HIS (SinoBiological Cat #: …); assay: BLI (Gator), trace labelled 5 µg/mL; unit taken from the Average KD line
[20] = molecular target: T11, LILRA6 expressed on cells (human, UniProt Q6PI73 24-481); assay: flow cytometry on CHO-LILRA6 cells, non-linear fit of the curves of FIG. 26F
T11 construct: whole, on cells; GFP-tagged; also called human LILRA6; CHO-LILRA6

[21] = molecular target: T12, LILRB3 expressed on cells (human, UniProt O75022 24-631); assay: flow cytometry on CHO-LILRB3 cells
T12 construct: whole, on cells; Expressed with a GFP tag from the bought plasmid; also called human LILRB3; CHO-LILRB3

[22] = molecular target: T7, LILRB2-ECD-HIS (SinoBiological Cat #: …); assay: SPR (Carterra), LILRB2-ECD-his

T7 sequence (Q8N423 other isoform, or with tags, fused parts or gaps H02H H02H): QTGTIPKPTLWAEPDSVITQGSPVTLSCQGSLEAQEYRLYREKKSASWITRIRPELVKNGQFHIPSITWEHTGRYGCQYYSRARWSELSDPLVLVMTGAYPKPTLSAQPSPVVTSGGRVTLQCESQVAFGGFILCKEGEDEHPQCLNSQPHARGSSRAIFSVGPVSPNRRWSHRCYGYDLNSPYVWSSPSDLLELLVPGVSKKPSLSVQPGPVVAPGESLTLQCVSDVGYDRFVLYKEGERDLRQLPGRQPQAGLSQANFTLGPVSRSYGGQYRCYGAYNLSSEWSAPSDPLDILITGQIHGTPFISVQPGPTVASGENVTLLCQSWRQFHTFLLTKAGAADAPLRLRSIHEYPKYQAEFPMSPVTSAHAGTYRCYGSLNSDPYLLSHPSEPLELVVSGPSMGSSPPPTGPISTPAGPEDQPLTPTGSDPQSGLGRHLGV
T10 sequence (O75019 17-489): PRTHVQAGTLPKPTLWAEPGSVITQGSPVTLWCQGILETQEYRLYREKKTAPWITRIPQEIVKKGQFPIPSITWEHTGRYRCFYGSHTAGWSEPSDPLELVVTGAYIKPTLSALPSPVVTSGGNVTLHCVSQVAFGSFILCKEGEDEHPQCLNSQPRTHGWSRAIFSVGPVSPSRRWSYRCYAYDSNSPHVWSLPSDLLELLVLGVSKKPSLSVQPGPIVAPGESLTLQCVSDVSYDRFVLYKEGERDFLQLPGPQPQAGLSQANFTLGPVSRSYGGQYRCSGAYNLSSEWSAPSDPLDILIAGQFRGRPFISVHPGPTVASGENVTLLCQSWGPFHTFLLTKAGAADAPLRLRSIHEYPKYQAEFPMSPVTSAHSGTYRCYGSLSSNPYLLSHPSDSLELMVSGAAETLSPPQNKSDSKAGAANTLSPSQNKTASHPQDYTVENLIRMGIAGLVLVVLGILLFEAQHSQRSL
T3 sequence (Q8N423 other isoform, or with tags, fused parts or gaps limits assumed): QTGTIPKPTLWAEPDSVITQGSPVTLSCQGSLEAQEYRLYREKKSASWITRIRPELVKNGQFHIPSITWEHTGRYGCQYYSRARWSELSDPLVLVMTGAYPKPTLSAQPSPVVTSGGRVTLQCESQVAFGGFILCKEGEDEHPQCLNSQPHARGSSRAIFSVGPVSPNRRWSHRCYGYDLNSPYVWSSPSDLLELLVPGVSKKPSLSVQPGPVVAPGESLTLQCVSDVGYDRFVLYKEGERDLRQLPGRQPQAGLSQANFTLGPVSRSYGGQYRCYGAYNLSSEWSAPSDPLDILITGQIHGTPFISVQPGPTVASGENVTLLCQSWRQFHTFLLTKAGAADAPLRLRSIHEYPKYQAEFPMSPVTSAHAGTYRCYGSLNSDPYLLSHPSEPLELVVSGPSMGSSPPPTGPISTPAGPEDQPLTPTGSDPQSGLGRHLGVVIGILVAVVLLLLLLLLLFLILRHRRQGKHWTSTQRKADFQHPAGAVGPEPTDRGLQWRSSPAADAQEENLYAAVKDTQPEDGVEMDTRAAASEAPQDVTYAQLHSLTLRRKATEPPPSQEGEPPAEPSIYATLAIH
T1 sequence (Q8NHL6 other isoform, or with tags, fused parts or gaps H02H H02H): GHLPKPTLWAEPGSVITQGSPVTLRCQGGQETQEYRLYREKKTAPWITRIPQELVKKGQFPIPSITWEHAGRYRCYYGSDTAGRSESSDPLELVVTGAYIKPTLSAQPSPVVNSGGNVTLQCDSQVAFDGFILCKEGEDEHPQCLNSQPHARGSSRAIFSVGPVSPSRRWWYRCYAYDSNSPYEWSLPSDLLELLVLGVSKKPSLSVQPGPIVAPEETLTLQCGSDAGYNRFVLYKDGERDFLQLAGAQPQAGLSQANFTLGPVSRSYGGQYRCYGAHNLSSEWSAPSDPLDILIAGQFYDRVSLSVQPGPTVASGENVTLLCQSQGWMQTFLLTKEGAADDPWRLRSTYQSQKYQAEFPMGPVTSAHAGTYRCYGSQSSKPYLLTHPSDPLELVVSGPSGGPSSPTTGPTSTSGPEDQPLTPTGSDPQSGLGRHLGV
T2 sequence (O75023 24-590 limits assumed): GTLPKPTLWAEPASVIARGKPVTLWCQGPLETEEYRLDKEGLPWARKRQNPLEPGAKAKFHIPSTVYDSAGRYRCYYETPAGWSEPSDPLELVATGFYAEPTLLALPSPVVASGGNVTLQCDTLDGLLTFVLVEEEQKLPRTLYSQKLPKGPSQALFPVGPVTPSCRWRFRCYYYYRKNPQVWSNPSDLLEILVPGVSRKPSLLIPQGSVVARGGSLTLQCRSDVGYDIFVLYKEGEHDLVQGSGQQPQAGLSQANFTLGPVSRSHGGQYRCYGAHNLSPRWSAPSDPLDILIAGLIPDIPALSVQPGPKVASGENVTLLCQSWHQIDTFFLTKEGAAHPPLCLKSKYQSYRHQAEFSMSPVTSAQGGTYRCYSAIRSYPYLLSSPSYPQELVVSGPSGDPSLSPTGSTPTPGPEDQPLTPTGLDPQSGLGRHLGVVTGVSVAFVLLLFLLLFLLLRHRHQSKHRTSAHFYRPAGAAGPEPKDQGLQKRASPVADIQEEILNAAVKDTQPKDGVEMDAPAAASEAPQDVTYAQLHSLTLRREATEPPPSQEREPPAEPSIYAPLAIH
T9 sequence (P59901 24-499 limits assumed): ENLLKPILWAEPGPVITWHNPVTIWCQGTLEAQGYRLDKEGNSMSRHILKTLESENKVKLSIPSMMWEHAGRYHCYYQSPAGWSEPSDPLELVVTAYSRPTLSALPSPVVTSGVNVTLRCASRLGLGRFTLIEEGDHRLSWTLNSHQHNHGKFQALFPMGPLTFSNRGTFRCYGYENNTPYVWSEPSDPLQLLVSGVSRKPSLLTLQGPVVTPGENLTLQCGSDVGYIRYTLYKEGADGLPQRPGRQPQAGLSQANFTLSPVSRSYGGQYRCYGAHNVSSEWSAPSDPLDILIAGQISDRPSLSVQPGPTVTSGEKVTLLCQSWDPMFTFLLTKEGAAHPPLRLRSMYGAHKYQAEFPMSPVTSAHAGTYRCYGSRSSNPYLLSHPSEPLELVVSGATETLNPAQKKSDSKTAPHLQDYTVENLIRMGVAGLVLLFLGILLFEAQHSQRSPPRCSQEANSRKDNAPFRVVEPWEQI
T11 sequence (Q6PI73 24-481): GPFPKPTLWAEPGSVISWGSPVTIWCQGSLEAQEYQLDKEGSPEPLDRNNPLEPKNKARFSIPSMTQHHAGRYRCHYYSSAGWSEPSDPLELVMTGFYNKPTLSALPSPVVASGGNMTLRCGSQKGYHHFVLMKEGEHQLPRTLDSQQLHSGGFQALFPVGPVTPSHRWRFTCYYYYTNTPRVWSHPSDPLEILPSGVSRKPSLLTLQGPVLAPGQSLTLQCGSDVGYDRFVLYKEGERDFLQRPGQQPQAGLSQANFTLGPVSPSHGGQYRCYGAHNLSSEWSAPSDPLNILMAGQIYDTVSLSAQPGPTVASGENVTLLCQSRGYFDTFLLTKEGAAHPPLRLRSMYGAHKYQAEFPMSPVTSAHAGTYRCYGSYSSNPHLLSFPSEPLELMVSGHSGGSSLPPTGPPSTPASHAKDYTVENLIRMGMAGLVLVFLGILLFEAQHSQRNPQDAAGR
T6 sequence (Q8NHL6 other isoform, or with tags, fused parts or gaps limits assumed): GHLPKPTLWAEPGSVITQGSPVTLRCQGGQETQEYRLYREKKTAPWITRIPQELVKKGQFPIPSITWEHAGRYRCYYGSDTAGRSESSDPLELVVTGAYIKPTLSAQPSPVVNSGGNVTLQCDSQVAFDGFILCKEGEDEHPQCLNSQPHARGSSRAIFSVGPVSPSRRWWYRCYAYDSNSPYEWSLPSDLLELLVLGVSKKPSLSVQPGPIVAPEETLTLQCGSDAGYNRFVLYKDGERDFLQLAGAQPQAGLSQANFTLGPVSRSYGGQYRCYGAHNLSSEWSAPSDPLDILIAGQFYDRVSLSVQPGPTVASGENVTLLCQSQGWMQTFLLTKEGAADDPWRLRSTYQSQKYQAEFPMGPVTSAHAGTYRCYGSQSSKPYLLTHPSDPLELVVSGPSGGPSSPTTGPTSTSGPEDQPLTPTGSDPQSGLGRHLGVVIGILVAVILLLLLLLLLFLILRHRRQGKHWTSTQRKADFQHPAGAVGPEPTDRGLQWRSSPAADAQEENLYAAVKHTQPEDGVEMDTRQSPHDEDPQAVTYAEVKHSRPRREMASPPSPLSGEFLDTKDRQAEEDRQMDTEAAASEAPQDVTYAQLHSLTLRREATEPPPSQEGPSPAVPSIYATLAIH
T8 sequence (A6NI73 42-299 limits assumed): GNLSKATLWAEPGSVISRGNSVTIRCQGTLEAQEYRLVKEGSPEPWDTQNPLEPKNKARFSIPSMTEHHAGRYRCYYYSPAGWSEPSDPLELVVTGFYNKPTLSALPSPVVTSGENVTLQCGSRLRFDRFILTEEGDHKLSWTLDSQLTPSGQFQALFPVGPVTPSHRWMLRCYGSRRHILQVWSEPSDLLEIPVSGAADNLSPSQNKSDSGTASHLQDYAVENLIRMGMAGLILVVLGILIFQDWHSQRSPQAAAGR
T5 sequence (Q8N149 24-483 limits assumed): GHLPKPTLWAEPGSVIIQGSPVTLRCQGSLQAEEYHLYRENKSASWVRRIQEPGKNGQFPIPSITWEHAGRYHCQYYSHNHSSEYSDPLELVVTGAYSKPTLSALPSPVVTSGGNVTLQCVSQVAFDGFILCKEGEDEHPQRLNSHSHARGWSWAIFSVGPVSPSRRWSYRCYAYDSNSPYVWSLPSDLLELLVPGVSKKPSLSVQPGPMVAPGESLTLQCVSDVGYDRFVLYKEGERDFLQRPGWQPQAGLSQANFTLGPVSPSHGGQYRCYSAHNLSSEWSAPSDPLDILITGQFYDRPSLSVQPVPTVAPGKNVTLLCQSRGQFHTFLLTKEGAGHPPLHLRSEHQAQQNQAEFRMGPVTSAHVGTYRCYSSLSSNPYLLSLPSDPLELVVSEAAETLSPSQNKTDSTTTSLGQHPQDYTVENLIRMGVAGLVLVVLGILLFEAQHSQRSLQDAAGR

Kd [1]: 2.12 nM
binding result [2]: no binding (tested: 5 µg/mL)
EC50 (read off the curve) [3]: ~0.1 µg/mL
Kd [4]: 1.36 nM
binding result [5]: no binding (tested: 5 µg/mL)
IC50 [6]: 0.208 µg/mL
Kd [7]: 0.265 nM
Kd [8]: 5.67 nM
koff [8]: 0.000347 s⁻¹
kon [8]: 61300 M⁻¹ s⁻¹
binding result [9]: no binding (tested: 5 µg/mL)
EC50 [10]: 0.258 µg/mL
binding result [11]: binds
Kd [12]: 0.286 nM
IC50 (read off the curve) [13]: ~0.06 µg/mL
EC50 (read off the curve) [14]: ~0.5 µg/mL
EC50 [15]: 0.21 µg/mL
gMFI (max) [15]: 21900
EC50 [16]: 0.474 µg/mL
MaxMFI [16]: 19500
Kd [17]: 9.77 nM
Kd [18]: 1.57 nM
Kd [19]: 3.61 nM
EC50 [20]: 9.46 µg/mL
EC50 [21]: 4 µg/mL and 26.6 nM
Kd [22]: 0.44 nM
koff [22]: 0.0002 s⁻¹
kon [22]: 456000 M⁻¹ s⁻¹
B1: D2M002-002 (antibody, V domains shown)
VH: EVQLQQSGPELVKPGASVKMSCKASGYTFTRYVMHWVKQKPGQGLEWIGYINPNNDGTKYNEKFKGKVTLTSDKSSSTAYMELSSLTSEDSAVYYCARGDLEILPYYDHARNAMDYWGQGTSVTVSS
VL: DVQMIQSPASLSASVGETVTITCRASENIYSYLAWYQQKQGKSPQLLVYNAKTLAEGVPSRFSGSGSGTQFSLKINSLQPEDFGSYYCQHFWSTPPTFGGGTKLEIK
notes: Hit from immunised mice; also called clone #2; anti-LILRB1/2 clone #2
